{
  "source": "paper PMC3943285",
  "about": "“Activity of a Carboxyl-Terminal Truncated Form of Catechol 2,3-Dioxygenase from Planococcus sp. S5” (The Scientific World Journal, 2014)",
  "test_system": "Oc1ccccc1O",
  "experiment": "cells, lysate or membranes",
  "details": "catechol 0-150 µM, 35 °C, 50 mM phosphate pH 7.5 (general assay), O2 co-substrate, crude extract",
  "key": {"[1]": {"details": "C-terminally truncated (stop at 289)"}},
  "data": [
    {"substance": "C23Owt (catechol 2,3-dioxygenase from Planococcus sp. S5) (Planococcus sp. S5)", "values": [
      {"measurement": "Km", "value": "97.74 ± 10.91", "unit": "µM"},
      {"measurement": "Vmax", "value": 0.115, "unit": "µmol/min/mg"}
    ]},
    {"substance": "C23Owt (catechol 2,3-dioxygenase from Planococcus sp. S5) (Planococcus sp. S5; C103R)", "values": [
      {"measurement": "Km", "setting": "[1]", "value": "66.17 ± 9.44", "unit": "µM"},
      {"measurement": "Vmax", "setting": "[1]", "value": 0.104, "unit": "µmol/min/mg"}
    ]}
  ]
}
